# B1: Refmab #3 (antibody, V domains shown)
# VH: QVQLVQSGAEVKKPGSSVKVSCKASGYTFTDYNMHWVRQAPGQGLEWIGYIYPYNGGTGYNQKFKSKATITADESTNTAYMELSSLRSEDTAVYYCARGRPAMDYWGQGTLVTVSS
# VL: DIQMTQSPSSLSASVGDRVTITCRASESVDNYGISFMNWFQQKPGKAPKLLIYAASNQGSGVPSRFSGSGSGTDFTLTISSLQPDDFATYYCQQSKEVPWTFGQGTKVEIK
# notes: In the alanine scan antibodies were used as IgG or Fab
# B2: Refmab #4 (antibody, V domains shown)
# VH: QVQLVQSGAEVKKPGESVKVSCKASGYTFTNYGMNWVKQAPGQGLEWMGWINTYTGEPTYADKFQGRVTMTTDTSTSTAYMEIRNLGGDDTAVYYCARWSWSDGYYVYFDYWGQGTSVTVSS
# VL: DIVMTQSPDSLTVSLGERTTINCKSSQSVLDSSTNKNSLAWYQQKPGQPPKLLLSWASTRESGIPDRFSGSGSGTDFTLTIDSPQPEDSATYYCQQSAHFPITFGQGTRLEIK
# notes: as for B1
# B3: Refmab #1 (antibody, V domains shown)
# VH: EVQLVQSGAEVKKPGSSVKVSCKASGYTITDSNIHWVRQAPGQSLEWIGYIYPYNGGTDYNQKFKNRATLTVDNPTNTAYMELSSLRSEDTAFYYCVNGNPWLAYWGQGTLVTVSS
# VL: DIQLTQSPSTLSASVGDRVTITCRASESLDNYGIRFLTWFQQKPGKAPKLLMYAASNQGSGVPSRFSGSGSGTEFTLTISSLQPDDFATYYCQQTKEVPWSFGQGTKVEVK
# notes: In the alanine scan antibodies were used as IgG or Fab; also called hP67.6
# B4: Refmab #1 (antibody, V domains shown)
# VH: EVQLVQSGAEVKKPGSSVKVSCKASGYTITDSNIHWVRQAPGQSLEWIGYIYPYNGGTDYNQKFKNRATLTVDNPTNTAYMELSSLRSEDTAFYYCVNGNPWLAYWGQGTLVTVSS
# VL: DIQLTQSPSTLSASVGDRVTITCRASESLDNYGIRFLTWFQQKPGKAPKLLMYAASNQGSGVPSRFSGSGSGTEFTLTISSLQPDDFATYYCQQTKEVPWSFGQGTKVEVK
# notes: The alanine scan used IgG or Fab; also called hP67.6
# B5: Refmab #2 (antibody, V domains shown)
# VH: QVQLVQSGAEVKKPGSSVKVSCKASGGTFSDYAISWVRQAPGQGLEWMGRIIPILGVADYAQKFQGRVTITADKSTRTAYMELSSLRSEDTAVYYCARNWADAFDIWGQGTMVTVSS
# VL: DIQLTQSPSSLSASVGDRVTITCRASQGISSVLAWYQQKPGKAPKLLIYDASSLESGVPSRFSGSGSGTDFTLTISSLQPEDFATYYCQQFDSSITFGQGTKLEIK
# notes: as for B1
# B6: Refmab #2 (antibody, V domains shown)
# VH: QVQLVQSGAEVKKPGSSVKVSCKASGGTFSDYAISWVRQAPGQGLEWMGRIIPILGVADYAQKFQGRVTITADKSTRTAYMELSSLRSEDTAVYYCARNWADAFDIWGQGTMVTVSS
# VL: DIQLTQSPSSLSASVGDRVTITCRASQGISSVLAWYQQKPGKAPKLLIYDASSLESGVPSRFSGSGSGTDFTLTISSLQPEDFATYYCQQFDSSITFGQGTKLEIK
# notes: The alanine scan used IgG or Fab
# What was measured:
# Assay in all cases: alanine scan, flow cytometry, HEK293-T;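 also: antibody binding to each alanine-substituted CD33 mutant expressed transiently in HEK293-T, read as fluorescence minus background, mean of duplicates, relative to wild-type CD33 set as 100%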
# human CD33 T191A = human CD33 T191A (human, UniProt P20138 18-364)
# Chain of human CD33 T191A (P20138 18-364 T191A limits assumed): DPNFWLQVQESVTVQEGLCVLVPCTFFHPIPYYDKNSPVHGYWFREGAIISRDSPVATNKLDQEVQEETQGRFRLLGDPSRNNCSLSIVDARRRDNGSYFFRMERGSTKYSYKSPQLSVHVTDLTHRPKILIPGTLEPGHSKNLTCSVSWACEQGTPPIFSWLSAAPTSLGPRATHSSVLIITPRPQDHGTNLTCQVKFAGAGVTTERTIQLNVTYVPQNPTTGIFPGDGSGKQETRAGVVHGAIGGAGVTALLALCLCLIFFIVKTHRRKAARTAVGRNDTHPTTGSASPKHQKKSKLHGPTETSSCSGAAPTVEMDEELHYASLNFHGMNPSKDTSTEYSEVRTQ
# human CD33 S194A = human CD33 S194A (human, UniProt P20138 18-364)
# human CD33 F216A = human CD33 F216A (human, UniProt P20138 18-364)
# Chain of human CD33 F216A (P20138 18-364 F216A limits assumed): as the sequence (P20138 18-364 T191A limits assumed) above, with A174T, F199A counted along it
# human CD33 L210A = human CD33 L210A (human, UniProt P20138 18-364)
# Chain of human CD33 L210A (P20138 18-364 L210A limits assumed): as the sequence (P20138 18-364 T191A limits assumed) above, with A174T, L193A counted along it
# human CD33 P184A = human CD33 P184A (human, UniProt P20138 18-364)
# Chain of human CD33 P184A (P20138 18-364 P184A limits assumed): as the sequence (P20138 18-364 T191A limits assumed) above, with P167A, A174T counted along it
# human CD33 N230A = human CD33 N230A (human, UniProt P20138 18-364)
# human CD33 A219S = human CD33 A219S (human, UniProt P20138 18-364)
# human CD33 N237A = human CD33 N237A (human, UniProt P20138 18-364)
# Chain of human CD33 N237A (P20138 18-364 N237A limits assumed): as the sequence (P20138 18-364 T191A limits assumed) above, with A174T, N220A counted along it
# human CD33 G241A = human CD33 G241A (human, UniProt P20138 18-364)
# Chain of human CD33 G241A (P20138 18-364 G241A limits assumed): as the sequence (P20138 18-364 T191A limits assumed) above, with A174T, G224A counted along it
# human CD33 V221A = human CD33 V221A (human, UniProt P20138 18-364)
# Chain of human CD33 V221A (P20138 18-364 V221A limits assumed): as the sequence (P20138 18-364 T191A limits assumed) above, with A174T, V204A counted along it
# human CD33 P238A = human CD33 P238A (human, UniProt P20138 18-364)
# Chain of human CD33 P238A (P20138 18-364 P238A limits assumed): as the sequence (P20138 18-364 T191A limits assumed) above, with A174T, P221A counted along it
# human CD33 D205A = human CD33 D205A (human, UniProt P20138 18-364)
# Chain of human CD33 D205A (P20138 18-364 D205A limits assumed): as the sequence (P20138 18-364 T191A limits assumed) above, with A174T, D188A counted along it
# human CD33 G220A = human CD33 G220A (human, UniProt P20138 18-364)
# Chain of human CD33 G220A (P20138 18-364 G220A limits assumed): as the sequence (P20138 18-364 T191A limits assumed) above, with A174T, G203A counted along it
# human CD33 G207A = human CD33 G207A (human, UniProt P20138 18-364)
# Chain of human CD33 G207A (P20138 18-364 G207A limits assumed): as the sequence (P20138 18-364 T191A limits assumed) above, with A174T, G190A counted along it
# human CD33 Q228A = human CD33 Q228A (human, UniProt P20138 18-364)
# human CD33 V214A = human CD33 V214A (human, UniProt P20138 18-364)
# Chain of human CD33 V214A (P20138 18-364 V214A limits assumed): as the sequence (P20138 18-364 T191A limits assumed) above, with A174T, V197A counted along it
# human CD33 P235A = human CD33 P235A (human, UniProt P20138 18-364)
# Chain of human CD33 P235A (P20138 18-364 P235A limits assumed): as the sequence (P20138 18-364 T191A limits assumed) above, with A174T, P218A counted along it
# human CD33 N209A = human CD33 N209A (human, UniProt P20138 18-364)
# Chain of human CD33 N209A (P20138 18-364 N209A limits assumed): as the sequence (P20138 18-364 T191A limits assumed) above, with A174T, N192A counted along it
# human CD33 G263A = human CD33 G263A (human, UniProt P20138 18-364)
# human CD33 A272S = human CD33 A272S (human, UniProt P20138 18-364)
# human CD33 K313A = human CD33 K313A (human, UniProt P20138 18-364)
# human CD33 L275A = human CD33 L275A (human, UniProt P20138 18-364)
# human CD33 T299A = human CD33 T299A (human, UniProt P20138 18-364)
# human CD33 V294A = human CD33 V294A (human, UniProt P20138 18-364)
# human CD33 G247A = human CD33 G247A (human, UniProt P20138 18-364)
# human CD33 A289S = human CD33 A289S (human, UniProt P20138 18-364)
# human CD33 H285A = human CD33 H285A (human, UniProt P20138 18-364)
# human CD33 I278A = human CD33 I278A (human, UniProt P20138 18-364)
# human CD33 K283A = human CD33 K283A (human, UniProt P20138 18-364)
# human CD33 T303A = human CD33 T303A (human, UniProt P20138 18-364)
# human CD33 H300A = human CD33 H300A (human, UniProt P20138 18-364)
# human CD33 G260A = human CD33 G260A (human, UniProt P20138 18-364)
# human CD33 T292A = human CD33 T292A (human, UniProt P20138 18-364)
# human CD33 A293S = human CD33 A293S (human, UniProt P20138 18-364)
# human CD33 Q311A = human CD33 Q311A (human, UniProt P20138 18-364)
# human CD33 T302A = human CD33 T302A (human, UniProt P20138 18-364)
Binder,Mean % WT Binding (human CD33 T191A) [%],Mean % WT Binding (human CD33 S194A) [%],Mean % WT Binding (human CD33 F216A) [%],Mean % WT Binding (human CD33 L210A) [%],Mean % WT Binding (human CD33 P184A) [%],Mean % WT Binding (human CD33 N230A) [%],Mean % WT Binding (human CD33 A219S) [%],Mean % WT Binding (human CD33 N237A) [%],Mean % WT Binding (human CD33 G241A) [%],Mean % WT Binding (human CD33 V221A) [%],Mean % WT Binding (human CD33 P238A) [%],Mean % WT Binding (human CD33 D205A) [%],Mean % WT Binding (human CD33 G220A) [%],Mean % WT Binding (human CD33 G207A) [%],Mean % WT Binding (human CD33 Q228A) [%],Mean % WT Binding (human CD33 V214A) [%],Mean % WT Binding (human CD33 P235A) [%],Mean % WT Binding (human CD33 N209A) [%],Mean % WT Binding (human CD33 G263A) [% WT binding],Mean % WT Binding (human CD33 A272S) [% WT binding],further results
B1,80,101,152,84,103,109,113,85.6,128,89,122,8.1,114,105,157,102,120,91.7,–,–,–
B2,95.1,79,71.6,92.3,79.4,63.5,112,72.9,109,104,117,0.1,115,87.1,112,101,101,88.1,–,–,–
B3,91.4,93.7,87.3,93,82.9,83.6,104,98.7,102,91.9,101,1.6,104,94.1,99.4,80.5,81.4,92.1,–,–,–
B4,–,–,–,–,–,–,–,–,–,–,–,–,–,–,–,–,–,–,98.9,87.6,Mean % WT Binding (human CD33 K313A): 84.1 % WT binding; Mean % WT Binding (human CD33 L275A): 88.7 % WT binding; Mean % WT Binding (human CD33 T299A): 90.3 % WT binding; Mean % WT Binding (human CD33 V294A): 91.7 % WT binding; Mean % WT Binding (human CD33 G247A): 98.5 % WT binding; Mean % WT Binding (human CD33 A289S): 97.1 % WT binding; Mean % WT Binding (human CD33 H285A): 100 % WT binding; Mean % WT Binding (human CD33 I278A): 99.1 % WT binding; Mean % WT Binding (human CD33 K283A): 92.7 % WT binding; Mean % WT Binding (human CD33 T303A): 94 % WT binding; Mean % WT Binding (human CD33 H300A): 76.5 % WT binding; Mean % WT Binding (human CD33 G260A): 81.9 % WT binding; Mean % WT Binding (human CD33 T292A): 89.5 % WT binding; Mean % WT Binding (human CD33 A293S): 90.6 % WT binding; Mean % WT Binding (human CD33 Q311A): 90.4 % WT binding; Mean % WT Binding (human CD33 T302A): 95 % WT binding
B5,114,112,101,98.2,111,96.4,117,112,111,92.3,119,2.8,132,109,120,118,108,104,–,–,–
B6,–,–,–,–,–,–,–,–,–,–,–,–,–,–,–,–,–,–,102,110,Mean % WT Binding (human CD33 K313A): 108 % WT binding; Mean % WT Binding (human CD33 L275A): 115 % WT binding; Mean % WT Binding (human CD33 T299A): 96.3 % WT binding; Mean % WT Binding (human CD33 V294A): 105 % WT binding; Mean % WT Binding (human CD33 G247A): 110 % WT binding; Mean % WT Binding (human CD33 A289S): 111 % WT binding; Mean % WT Binding (human CD33 H285A): 109 % WT binding; Mean % WT Binding (human CD33 I278A): 106 % WT binding; Mean % WT Binding (human CD33 K283A): 102 % WT binding; Mean % WT Binding (human CD33 T303A): 96.7 % WT binding; Mean % WT Binding (human CD33 H300A): 98.9 % WT binding; Mean % WT Binding (human CD33 G260A): 105 % WT binding; Mean % WT Binding (human CD33 T292A): 94.2 % WT binding; Mean % WT Binding (human CD33 A293S): 114 % WT binding; Mean % WT Binding (human CD33 Q311A): 99.5 % WT binding; Mean % WT Binding (human CD33 T302A): 90.7 % WT binding
